Results from the supplement of paper PMC10724198.
± gives the standard deviation of the averaged measurements.

system: Saccharomyces cerevisiae; assay: protein stability index of tFT-peptide fusion (C-terminal peptide) (PSI (0-1 scale)); higher = more stable (slower turnover); conditions: genetic background: wild type; temperature: 30 C
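Also: PSI is a weighted mean of sequencing reads over stability bins, variants kept only with over 10 reads, mCherry proximal and sfGFP distal, peptide attached via GGGS linker.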

Sequence | protein stability index
INKLRLNKKKSF | 0.659 ± 0.008
GDGLGFNRPNGR | 0.659 ± 0.025
VGLGLSVGKKEI | 0.651 ± 0.098
DSPPHPPPASAP | 0.714 ± 0.017
IKKRHQNGGKKE | 0.65 ± 0.0085
CLFPPYDYFFPF | 0.734 ± 0.091
PRIGRPQSLTFH | 0.621 ± 0.011
RPSHSRPITLPT | 0.707 ± 0.12
TVRWRRGTGGAR | 0.704 ± 0.019
CPCAWFSFLCFS | 0.666 ± 0.0066
PSVPRLPGLSLR | 0.629 ± 0.053
VRSFSFSALLAV | 0.58 ± 0.024
MTYKSKNRATEE | 0.648 ± 0.025
ELQVSGNTIIVV | 0.529 ± 0.032
CNGVGRLPGTPG | 0.685 ± 0.0086
VSGLKYSVLVGG | 0.555 ± 0.015
PPLPLPGPDHHL | 0.731 ± 0.087
KTKKNKITFKNK | 0.759 ± 0.02
ERKRPLAKKTKN | 0.643 ± 0.055
PSLFHHWSVLSP | 0.785 ± 0.1
STPRLERDGTTI | 0.635 ± 0.014
CGLSYSAVDLGV | 0.684 ± 0.01
NTKEETKESRGR | 0.713 ± 0.059
APPLPPSPPSAR | 0.729 ± 0.11
WRAGSGGGPLAS | 0.68 ± 0.043
PVSCMAWGRLVL | 0.667 ± 0.041

Sequence | protein stability index
LRVQASALHVLQ | 0.667 ± 0.021
APPLPSAPPPPR | 0.668 ± 0.031
PLPSHSRSRHPR | 0.744 ± 0.075
RRKLMLWTSKLE | 0.705 ± 0.05
CFCYSLSINLNL | 0.522 ± 0.0072
SPDFSVITKSYL | 0.764 ± 0.032
ICGGTNFPLGSV | 0.741 ± 0.032
SSVNRTADGTKP | 0.69 ± 0.02
LGNANKRPREIK | 0.718 ± 0.032
HGYRWCLHARFG | 0.556 ± 0.058
EPAAHCGERRHL | 0.608 ± 0.064
PPPLPPPAPPPP | 0.658 ± 0.025
VDFGTLISEDRM | 0.736 ± 0.036
PPPPTPLPPPDP | 0.68 ± 0.035
DSVRRMAEGKRE | 0.672 ± 0.029
APLRAPYPPPPY | 0.7153 ± 0.0014
AVRLALAPQVGA | 0.617 ± 0.018
GFVRGDRSGVGG | 0.702 ± 0.036
SPISFIHPHISG | 0.644 ± 0.017
INSEKKKDRNKL | 0.779 ± 0.02
ETALKVGSVGGV | 0.71037 ± 6.9e-05
PPSPRHPAPQPR | 0.679 ± 0.026
KKKKPKNKSKDK | 0.634 ± 0.095
QSPMTTGASERH | 0.623 ± 0.066
FFMNGLWGLSVR | 0.612 ± 0.0092
SPGNLPMSSSLL | 0.686 ± 0.022

Sequence | protein stability index
AKSRQRKNGRTG | 0.708 ± 0.026
LPPPPRPALSHR | 0.72 ± 0.089
FCCFFFPALCCL | 0.493 ± 0.024
VPQREWGGVRLG | 0.675 ± 0.017
LRARLTGRFIVG | 0.669 ± 0.013
SGFLPPRFLSPS | 0.6895 ± 0.0012
LGLGSFPLMDLS | 0.738 ± 0.015
IREQQKNQNHKE | 0.642 ± 0.051
PPIPYIVPPSYT | 0.657 ± 0.015
PFLTSPPPLPLH | 0.632 ± 0.031
RRAAYARVFCRI | 0.641 ± 0.046
RALCGWFAKRMI | 0.637 ± 0.035
PLHHPPSPRLPP | 0.617 ± 0.018
EPAFMRRFMSNK | 0.657 ± 0.016
SRGVSIQQSIKI | 0.726 ± 0.037
SSPPPPVPPPPS | 0.725 ± 0.082
GGGGGAKGEGVR | 0.733 ± 0.1
SLPALPPLGLFS | 0.71 ± 0.017
PHADFALFPFSP | 0.785 ± 0.036
VVGGVLRFLLLW | 0.599 ± 0.013
AYVSLRASLLSS | 0.633 ± 0.063
FFPPPSSFCLSL | 0.772 ± 0.069
LQFAQLLDISIT | 0.696 ± 0.062
PSPPVMSPEVAC | 0.627 ± 0.038
GGSRPPPFRPPA | 0.724 ± 0.014
GRGGYGKESLYC | 0.627 ± 0.031

Sequence | protein stability index
CFSSLRFCLPSV | 0.686 ± 0.00021
PSPPHPPIPTSP | 0.696 ± 0.015
RVGYVPNFFCVL | 0.6254 ± 0.0038
LALRMLWSIVRT | 0.599 ± 0.079
VTSTVPRFPQFT | 0.667 ± 0.014
VGGGACVWSRRR | 0.698 ± 0.05
WLVRNVVGGGLC | 0.701 ± 0.046
TTTRSDALPRGG | 0.713 ± 0.024
PPGSSPPPVLSL | 0.703 ± 0.022
DINHTSKKKIYI | 0.663 ± 0.015
PRRPHDPFPAAP | 0.686 ± 0.017
PNFPEPSLTDAL | 0.716 ± 0.04
TVHTILYVPDEL | 0.677 ± 0.021
KEGDMWRVSTLD | 0.682 ± 0.016
STTLKIHRKNRK | 0.725 ± 0.063
PVSSLPQTLLMF | 0.758 ± 0.22
VSVGEDGNRPTC | 0.645 ± 0.071
CDGPFRLVLGGG | 0.672 ± 0.018
AYGVGQERWVRE | 0.725 ± 0.061
SPLSLSFLLLCL | 0.524 ± 0.028
LRREQIKEAKHR | 0.66 ± 0.017
DHPFFCWDGVVK | 0.687 ± 0.069
WRAGGGGGPAGV | 0.679 ± 0.029
GTQSGGGGGKGG | 0.683 ± 0.044
NTPSKKHDLNRL | 0.707 ± 0.033
VGWAVNGSMVVG | 0.662 ± 0.021

Sequence | protein stability index
VKSFRFPHPVWN | 0.682 ± 0.011
SLSTAEAHGRRS | 0.72 ± 0.082
FFRSFVVGSVLV | 0.567 ± 0.0064
LLAFRVSRYFCD | 0.87 ± 0.06
GGILNLCVTSLC | 0.617 ± 0.022
GSIWGVGWGQGV | 0.682 ± 0.11
RRPRPRSGWILL | 0.69 ± 0.047
SHVVDAPYRSEG | 0.66601 ± 0.00013
SIRNNMKRVRKN | 0.631 ± 0.022
KNRKSYTINSRK | 0.656 ± 0.055
VRRSNKTIKRKK | 0.746 ± 0.1
DQVSGYNVWFGT | 0.698 ± 0.028
GYWGRGGGLGGV | 0.7438 ± 0.001
GRWEGLRGLGVG | 0.647 ± 0.012
ITFTCRHQGKKK | 0.759 ± 0.095
NPSNEKERRKKN | 0.704 ± 0.02
DRAPPPPRSSPL | 0.733 ± 0.076
KATNLNKVRRWE | 0.693 ± 0.048
RKVTKLYDNIML | 0.776 ± 0.1
TPLSPPALPPPS | 0.659 ± 0.074
VPPPRYLPAFPA | 0.694 ± 0.0078
GWSFDLVSAQWG | 0.817 ± 0.02
VGMGRAPGPDPA | 0.646 ± 0.0093
TNKKEPTMTRKK | 0.72528 ± 0.00042
SLRPALSFLPLP | 0.716 ± 0.054
CSATVLSNCTFP | 0.687 ± 0.051

Sequence | protein stability index
ASYFPLRLLGFL | 0.65 ± 0.051
LGARELTFALLR | 0.649 ± 0.0039
PRSSVLPPCPSL | 0.707 ± 0.025
LRGEGAGPEDVG | 0.67 ± 0.029
CLSLVCGFPVVY | 0.605 ± 0.0099
GGRALVGGRRHG | 0.756 ± 0.14
APPPLPSPRPAA | 0.699 ± 0.04
LPTSPQLPHAPS | 0.7192 ± 0.0046
VHRFPPAPFCTP | 0.734 ± 0.047
IGRLQGWSSGDE | 0.688 ± 0.037
GPPPPLFAPWPF | 0.656 ± 0.027
PLPPPLPNPPPS | 0.667 ± 0.074
SLDLSQPMPWYH | 0.711 ± 0.051
LGVGGRWVGPGA | 0.722 ± 0.027
TAPSGIYFSLPL | 0.66 ± 0.054
SPSPSSLPPPLR | 0.726 ± 0.052
NRNDKNIERRKM | 0.69 ± 0.069
TPSAPPPTHPYP | 0.684 ± 0.036
PTRRFVFCDVDK | 0.717 ± 0.077
SLSPWRLPIGGW | 0.708 ± 0.033
LSLAPPPLLHHL | 0.664 ± 0.02
FPSPPPGPHPSP | 0.76336 ± 0.00013
GGRHARRGRRRR | 0.75 ± 0.11
RRRSSRPAPPPL | 0.698 ± 0.023
KIENQKKRLQRT | 0.708 ± 0.028
RPAPPLFVSSPG | 0.699 ± 0.0097

Sequence | protein stability index
QCRSLVGGCCVW | 0.693 ± 0.031
TKSRKWEERENQ | 0.682 ± 0.013
SEAFDSSARRAL | 0.541 ± 0.043
GGCVGVLGGWGV | 0.695 ± 0.012
IQHWGIRRRITY | 0.728 ± 0.066
GQEGQIPPGNVH | 0.709 ± 0.011
LPPPVFPLRLSL | 0.703 ± 0.027
KARNIVESGKTQ | 0.722 ± 0.038
PFSLIFSFFSEV | 0.7487 ± 0.0047
SRMRADRYWRNY | 0.622 ± 0.019
TIDACFHSDWGC | 0.782 ± 0.11
RHDMTSGCVSHS | 0.703 ± 0.039
PLSLPLSLLCPP | 0.698 ± 0.051
HAARFRLPASPC | 0.672 ± 0.051
VGCPLSLDAPEG | 0.687 ± 0.029
PLPLPLPSRPRP | 0.653 ± 0.044
PLGGLTLNIIEC | 0.701 ± 0.0089
AIQNSNLNTKVR | 0.675 ± 0.033
ALALCLVFFFSI | 0.574 ± 0.065
YSRRRKILRKSY | 0.615 ± 0.051
PPPAPFSPLPPP | 0.7184 ± 0.002
FYLLTASVCGMF | 0.53 ± 0.0053
LFSLPPRASFSL | 0.773 ± 0.043
RERTNKKLAKDK | 0.656 ± 0.045
PPPLFLSPFPPR | 0.727 ± 0.015
SPGDVVVAVGGG | 0.6669 ± 0.0037

Sequence | protein stability index
GGGVSCGRWGTG | 0.639 ± 0.086
IHSRAAVGEYTG | 0.6425 ± 0.0046
TVPLPPPPFLDS | 0.772 ± 0.042
IKRVPRRSEYRG | 0.633 ± 0.043
EEREGPVGKGGG | 0.708 ± 0.044
HADFRTLLASRS | 0.67 ± 0.018
PSLLLPPYSSAP | 0.743 ± 0.021
PLAPPRSPHLPP | 0.673 ± 0.041
LSTYVLRTGSFP | 0.677 ± 0.1
VKWAIWGGMEWR | 0.667 ± 0.07
FSPPSPPHPSPL | 0.741 ± 0.023
SERRVKKIEEQI | 0.77 ± 0.084
GGESENEVGSRS | 0.644 ± 0.038
RGIGIQSVAARN | 0.723 ± 0.094
IYSWSAALFHCR | 0.75 ± 0.1
YYLAVGNRIASR | 0.688 ± 0.043
NYMQVSIKNKKE | 0.641 ± 0.028
PTPRGTPCPDTM | 0.66 ± 0.065
PHSPSSPTIPSS | 0.7363 ± 0.0069
PPPRARPHAPPL | 0.653 ± 0.017
